The Human Domainome abundance scans (Beltran et al. 2025)

B1: GAS2-like protein 1, residues 209 to 276; numbered along this chain, Q99501 (parent)
chain: DELVREILGRCTCPDQFPMIKVSEGKYRVGDSSLLIFVRVLRSHVMVRVGGGWDTLEHYLDKHDPCRC

Variants of: B1
Assay: abundance fitness (aPCA) (normalised: wild type 0, dead -1); higher = more abundant; growth selection in yeast, the domain comes from the species named
Details: Homo sapiens

Abundance fitness, by site and new letter:
L35: Y -0.022 | R -0.195 | I 0.069 | K -0.227 | H -0.247 | T 0.072 | G -0.383 | F -0.187 | E 0.099 | C -0.013 | W -0.64 | V -0.041 | D -0.003 | N 0.097 | Q -0.171 | A -0.111 | M -0.025
H44: D -0.004 | N -0.376 | K 0.007 | E 0.222 | P -0.731 | F -0.532 | L -0.341 | S 0.099 | Y -0.515 | A -0.001 | C -0.182 | G 0.064 | Q 0.103 | T 0.074 | M 0.131 | R 0.142
V45: C -0.227 | F -0.927 | P -0.169 | I -0.076 | R -0.847 | L -0.328 | W -0.804 | Q -0.919 | A -0.141 | H -0.693 | M -0.505 | S -0.937
V40: Y -0.26 | R -0.025 | S -0.319 | M -0.259 | G -0.349 | K 0.129 | F -0.369 | H -0.308 | T -0.137 | Q -0.28 | W -0.661 | P -0.44 | E -0.196 | N 0.029 | C -0.097
R42: G 0.121 | L -0.541 | F -0.246 | H 0.074 | E -0.136 | T -0.334 | V -0.639 | D 0.134 | W -0.289 | Y -0.155 | P -0.424 | Q -0.005 | N 0.119 | A -0.066 | C -0.187 | M -0.1 | I -0.913 | S -0.143
S43: P 0.01 | W -0.462 | N 0.124 | E 0.164 | G 0.253 | F -0.175 | M -0.362 | L -0.648 | A -0.158 | V -0.58 | T -0.011 | Y -0.405
F37: P 0.256 | A 0.106 | D 0.37 | E 0.383 | N 0.31 | K 0.134 | V 0.054 | C 0.154 | I -0.007 | Y -0.07 | M 0.066 | G 0.064 | W 0.051 | L 0.141 | R 0.189 | S 0.306 | Q 0.248
D54: G 0.115 | L -0.346
T55: A -0.545 | I -0.817 | H -0.399 | C -0.785 | D -0.431 | F -0.263 | G -0.815
V49: D 0.256 | F -0.337 | Y -0.035 | S -0.048 | K -0.324 | N 0.013 | G -0.25 | M -0.133 | C -0.069 | I -0.133 | L -0.319 | A 0.007 | R -0.247 | Q 0.146
G50: M -0.28 | K -0.03 | Y -0.5 | D 0.076 | E 0.011 | T -0.259 | S -0.143 | C -0.517 | Q -0.017 | P -0.039 | A -0.08 | R -0.18 | N 0.007 | W -0.803 | H -0.205 | V -0.541 | L -0.473 | F -0.896 | I -0.765
V38: F -0.809 | S -0.626 | M -0.587 | Q -0.837 | T -0.402 | C -0.058 | P -0.3 | R -0.745 | I -0.322 | N -0.737 | L -0.275 | A -0.465 | G -0.566
R39: A -0.14 | T -0.058 | H -0.049 | G -0.242 | P -0.728 | Q -0.03 | W -0.695 | I -0.294 | S -0.144 | V -0.236 | D 0.089 | L -0.368 | Y -0.333 | F -0.172 | C -0.216 | M -0.172 | E -0.179
G51: A 0.024 | Q -0.015 | V -0.363 | Y -0.286 | P -0.206 | W -0.512 | L -0.219 | H 0.004 | D 0.176 | K 0.056 | C -0.157 | E 0.229 | M -0.15 | T 0.032 | R -0.159 | I -0.544
S33: R -0.043 | T -0.182 | N 0.113 | K 0.028 | D 0.039 | E 0.113 | C -0.115 | M -0.074 | H 0.014 | W -0.637 | Q 0.051 | Y -0.413 | F -0.549 | A -0.019 | I -0.856 | V -0.647 | P 0.01 | L -0.194
V47: E -0.99 | C -0.175 | G -0.851 | R -0.979 | K -0.694 | Q -1.08 | M -0.565 | F -0.921 | D -0.997 | W -0.761 | N -1.01 | P -0.888 | Y -0.386 | S -1.08 | T -0.783 | A -0.429 | L -0.595
L34: S 0.154 | E 0.316 | R -0.312 | N 0.094 | D 0.379 | W -0.085 | Y -0.015 | M 0.131 | G 0.135 | H 0.112 | T 0.05 | A 0.191 | I 0.102 | C 0.129 | V 0.103 | Q 0.238 | F -0.124
S32: Y -0.455
G52: R 0.021 | I -0.038 | H 0.077 | S 0.063 | P -0.669 | Q 0.166 | N -0.032 | L -0.004 | K 0.136 | T 0.109 | D 0.013 | F -0.068 | Y 0.08 | A 0.065 | V 0.089 | C -0.071
W53: C -0.485
I36: W -0.705 | L 0.148 | Y -0.444 | K -0.398 | T -0.314 | P -0.592 | G -0.683 | D -0.863 | S -0.673 | F -0.346 | M 0.058 | A -0.209 | C 0.169 | Q -0.992 | R -0.542 | V -0.017
L41: D 0.011 | F -0.143 | A -0.148 | C -0.09 | E 0.143 | Q 0.13 | K -0.171 | N -0.068 | S -0.013 | I 0.148 | G -0.293 | P -0.86 | M 0.098 | H 0.175 | V 0.149 | R 0.042 | Y 0.086 | W 0.032
R48: Q -0.133 | I -0.542 | V -0.784 | K 0.142 | M -0.225 | G -0.236 | F -0.404 | C -0.224 | E -0.191 | D -0.256 | Y -0.166 | S 0.039 | A -0.446 | N 0.087 | L -0.495 | W -0.366 | P -0.539 | T -0.628 | H -0.102
M46: I -0.186 | P -0.476 | L -0.056 | Q -0.093 | T -0.299 | Y 0.109 | D -0.931 | C -0.24 | E -0.455 | G -0.666 | S -0.642 | R -0.541 | K -0.601 | H -0.332 | A -0.596 | V -0.322
